Results reported in patent US20180155451A1 (published 2018).

T1: FcγRIIb extracellular domain with C-terminal His tag (human, UniProt P31994 43-217)
T1 construct: extracellular domain; expressed in FreeStyle293 cells; analyte in the Biacore assay; also called FcgRIIb; 2b; not shown: His tag at the C terminus
T1 sequence (looked up): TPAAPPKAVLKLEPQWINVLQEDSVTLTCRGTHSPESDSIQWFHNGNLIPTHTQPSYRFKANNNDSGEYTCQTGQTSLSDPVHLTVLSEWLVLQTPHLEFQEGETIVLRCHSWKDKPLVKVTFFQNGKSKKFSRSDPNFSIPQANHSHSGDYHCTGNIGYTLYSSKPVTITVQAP


Biological target: T1, FcγRIIb extracellular domain with …
Test: SPR (Biacore), captured antibody, FcγRIIb analyte; binding relative to GpH7-B3/GpL16-k0 = 100

Ho/Con_2b | Binder
170 % of control | GpH7-B3 variant K326_07I/GpL16-k0 (antibody, human IgG1, kappa, homodimerized; mutation in both H chains; also called Ho Ab K326_07I) heavy: not shown light: DIVMTQSPLSLPVTPGEPASISCQASESLVHSNRNTYLHWYLQKPGQSPQLLIYKVSNRFSGVPDRFSGSGSGTDFTLKISRVEAEDVGVYYCSQNTHVPPTFGQGTKVEIERTVAAPSVFIFPPSDEQLKSGTASVVCLLNNFYPREAKVQWKVDNALQSGNSQESVTEQDSKDSTYSLSSTLTLSKADYEKHKVYACEVTHQGLSSPVTKSFNRGEC
175 % of control | GpH7-B3 variant A327_09D/GpL16-k0 (antibody, human IgG1, kappa, homodimerized; mutation in both H chains; also called Ho Ab A327_09D) heavy: not shown light: DIVMTQSPLSLPVTPGEPASISCQASESLVHSNRNTYLHWYLQKPGQSPQLLIYKVSNRFSGVPDRFSGSGSGTDFTLKISRVEAEDVGVYYCSQNTHVPPTFGQGTKVEIERTVAAPSVFIFPPSDEQLKSGTASVVCLLNNFYPREAKVQWKVDNALQSGNSQESVTEQDSKDSTYSLSSTLTLSKADYEKHKVYACEVTHQGLSSPVTKSFNRGEC

Biological target: T2, FcγRIa extracellular domain with C-terminal His tag (human, UniProt P12314 16-292)
T2 construct: extracellular domain; also called FcgRI; CD64; not shown: His tag at the C terminus
Test: SPR Biacore, relative FcγRIa binding vs GpH7-A5/GpH7-B3/GpL16-k0

T2 sequence (P12314 16-292): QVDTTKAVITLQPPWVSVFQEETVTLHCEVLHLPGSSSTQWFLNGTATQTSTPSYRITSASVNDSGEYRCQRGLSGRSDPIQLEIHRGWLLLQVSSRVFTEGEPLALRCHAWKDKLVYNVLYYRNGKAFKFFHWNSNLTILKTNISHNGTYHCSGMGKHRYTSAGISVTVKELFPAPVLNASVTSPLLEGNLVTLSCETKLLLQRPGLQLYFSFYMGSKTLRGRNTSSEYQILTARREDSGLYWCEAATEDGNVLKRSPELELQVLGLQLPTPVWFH

Binder | He/Con_1a
GpH7-A5/GpH7-B3 variant S337_08L/GpL16-k0 (antibody, human IgG1, kappa, mutation in one H chain only; also called He Ab S337_08L; S337L) heavy 1: not shown heavy 2: not shown light: DIVMTQSPLSLPVTPGEPASISCQASESLVHSNRNTYLHWYLQKPGQSPQLLIYKVSNRFSGVPDRFSGSGSGTDFTLKISRVEAEDVGVYYCSQNTHVPPTFGQGTKVEIERTVAAPSVFIFPPSDEQLKSGTASVVCLLNNFYPREAKVQWKVDNALQSGNSQESVTEQDSKDSTYSLSSTLTLSKADYEKHKVYACEVTHQGLSSPVTKSFNRGEC | 105 % of HeCon Ab (=100)
GpH7-A5/GpH7-B3 variant Y300_12R/GpL16-k0 (antibody, human IgG1, kappa, mutation in one H chain only; also called He Ab Y300_12R; Y300R) heavy 1: not shown heavy 2: not shown light: DIVMTQSPLSLPVTPGEPASISCQASESLVHSNRNTYLHWYLQKPGQSPQLLIYKVSNRFSGVPDRFSGSGSGTDFTLKISRVEAEDVGVYYCSQNTHVPPTFGQGTKVEIERTVAAPSVFIFPPSDEQLKSGTASVVCLLNNFYPREAKVQWKVDNALQSGNSQESVTEQDSKDSTYSLSSTLTLSKADYEKHKVYACEVTHQGLSSPVTKSFNRGEC | 105 % of HeCon Ab (=100)

Now from value to binder:

He/Con_1a | Binder
108 % of HeCon Ab (=100) | GpH7-A5/GpH7-B3 variant T335_09D/GpL16-k0 (antibody, human IgG1, kappa, mutation in one H chain only; also called He Ab T335_09D; T335D) heavy 1: not shown heavy 2: not shown light: DIVMTQSPLSLPVTPGEPASISCQASESLVHSNRNTYLHWYLQKPGQSPQLLIYKVSNRFSGVPDRFSGSGSGTDFTLKISRVEAEDVGVYYCSQNTHVPPTFGQGTKVEIERTVAAPSVFIFPPSDEQLKSGTASVVCLLNNFYPREAKVQWKVDNALQSGNSQESVTEQDSKDSTYSLSSTLTLSKADYEKHKVYACEVTHQGLSSPVTKSFNRGEC
105 % of HeCon Ab (=100) | GpH7-A5/GpH7-B3 variant S337_19Q/GpL16-k0 (antibody, human IgG1, kappa, mutation in one H chain only; also called He Ab S337_19Q; S337Q) heavy 1: not shown heavy 2: not shown light: DIVMTQSPLSLPVTPGEPASISCQASESLVHSNRNTYLHWYLQKPGQSPQLLIYKVSNRFSGVPDRFSGSGSGTDFTLKISRVEAEDVGVYYCSQNTHVPPTFGQGTKVEIERTVAAPSVFIFPPSDEQLKSGTASVVCLLNNFYPREAKVQWKVDNALQSGNSQESVTEQDSKDSTYSLSSTLTLSKADYEKHKVYACEVTHQGLSSPVTKSFNRGEC
109 % of HeCon Ab (=100) | GpH7-A5/GpH7-B3 variant T335_07I/GpL16-k0 (antibody, human IgG1, kappa, mutation in one H chain only; also called He Ab T335_07I; T335I) heavy 1: not shown heavy 2: not shown light: DIVMTQSPLSLPVTPGEPASISCQASESLVHSNRNTYLHWYLQKPGQSPQLLIYKVSNRFSGVPDRFSGSGSGTDFTLKISRVEAEDVGVYYCSQNTHVPPTFGQGTKVEIERTVAAPSVFIFPPSDEQLKSGTASVVCLLNNFYPREAKVQWKVDNALQSGNSQESVTEQDSKDSTYSLSSTLTLSKADYEKHKVYACEVTHQGLSSPVTKSFNRGEC
115 % of HeCon Ab (=100) | GpH7-A5/GpH7-B3 variant T335_08L/GpL16-k0 (antibody, human IgG1, kappa, mutation in one H chain only; also called He Ab T335_08L; T335L) heavy 1: not shown heavy 2: not shown light: DIVMTQSPLSLPVTPGEPASISCQASESLVHSNRNTYLHWYLQKPGQSPQLLIYKVSNRFSGVPDRFSGSGSGTDFTLKISRVEAEDVGVYYCSQNTHVPPTFGQGTKVEIERTVAAPSVFIFPPSDEQLKSGTASVVCLLNNFYPREAKVQWKVDNALQSGNSQESVTEQDSKDSTYSLSSTLTLSKADYEKHKVYACEVTHQGLSSPVTKSFNRGEC
105 % of HeCon Ab (=100) | GpH7-A5/GpH7-B3 variant S337_20W/GpL16-k0 (antibody, human IgG1, kappa, mutation in one H chain only; also called He Ab S337_20W; S337W) heavy 1: not shown heavy 2: not shown light: DIVMTQSPLSLPVTPGEPASISCQASESLVHSNRNTYLHWYLQKPGQSPQLLIYKVSNRFSGVPDRFSGSGSGTDFTLKISRVEAEDVGVYYCSQNTHVPPTFGQGTKVEIERTVAAPSVFIFPPSDEQLKSGTASVVCLLNNFYPREAKVQWKVDNALQSGNSQESVTEQDSKDSTYSLSSTLTLSKADYEKHKVYACEVTHQGLSSPVTKSFNRGEC
107 % of HeCon Ab (=100) | GpH7-A5/GpH7-B3 variant T335_06M/GpL16-k0 (antibody, human IgG1, kappa, mutation in one H chain only; also called He Ab T335_06M; T335M) heavy 1: not shown heavy 2: not shown light: DIVMTQSPLSLPVTPGEPASISCQASESLVHSNRNTYLHWYLQKPGQSPQLLIYKVSNRFSGVPDRFSGSGSGTDFTLKISRVEAEDVGVYYCSQNTHVPPTFGQGTKVEIERTVAAPSVFIFPPSDEQLKSGTASVVCLLNNFYPREAKVQWKVDNALQSGNSQESVTEQDSKDSTYSLSSTLTLSKADYEKHKVYACEVTHQGLSSPVTKSFNRGEC
